Results on two molecules are retold here after article PMC4703965, “Inhibition of Canonical NF-κB Signaling by a Small Molecule Targeting NEMO-Ubiquitin Interaction” (Scientific Reports, 2016).

Data set [1] deals with the molecule itself. The experiment in a line: SEC-MALS; size exclusion chromatography (SEC) in combination with static light scattering (SLS); in solution. On the technique in general: In gel filtration, larger molecules generally elute earlier.
Data set [2] has as its target T1, linear Ub2 (UniProt P0CG48 1-76; P0CG48 1-76).
T1 construct: ubiquitin, distal moiety of Met1-linked linear di-ubiquitin (two ubiquitins head to tail on one chain); ubiquitin, proximal moiety of Met1-linked linear di-ubiquitin; also called linUb2; methionine-1-linked linear di-ubiquitin; source: recombinant
The experiment in a line: NMR titration; 1H,15N TROSY of 100 μM 15N-labeled NEMO_(UBAN) (258–350) without or with unlabeled linear Ub2 at 2:1 (NEMO_(UBAN):Ub2). The conditions noted are these: both partners purified.

The target of data set [3] is T1, linear Ub2. Put plainly: MST + ITC; Microscale Thermophoresis and Isothermal Titration Calorimetry of NEMO_(UBAN) C347S with linUb2; conditions not shown. To be noted: both partners purified. (In MST a laser heats a spot of the sample, and binding alters the fluorescence response.)
Data set [4] concerns the molecule itself. Put plainly: SAXS; 293 K; 300 mM NaCl, 50 mM Tris-HCl pH 8.0; NEMO_(UBAN) C347S 2.8–9.9 mg/ml; NEMO_(UBAN) C347S and linear Ub2 mixed 2:1 (3.5–12.9 mg/ml) and 2:2 (4.9–12.1 mg/ml).

Usually stoichiometry N stands for a count of units in the complex or per binding partner. Broadly, the Kd is the constant that tells how readily two partners part at equilibrium.

B1: NEMO_(UBAN) (258–350) (domain or fragment, UniProt Q9Y6K9 258-350, looked up)
chain: MQLEDLKQQLQQAEEALVAKQEVIDKLKEEAEQHKIVMETVPVLKAQADIYKADFQAERQAREKLAEKKELLQEQLEQLQREYSKLKASCQES
notes: NEMO (IKKγ, NF-κB essential modulator), UBAN / CC2-LZ region, residues 258–350; 15N-labelled for the NMR experiment; The His6 tag was cleavable by 3C or TEV protease; also called NEMO_(258–350); NEMO_(UBAN) WT; source: cloned into pET vectors, recombinant, purified (details in the Supporting Information); not shown: His6, N-terminal, cleaved
As for B1, the “stoichiometry N” value in data set [1] was found to be 2. Besides, the binding result with linear Ub2 [2] is given as “binds”.

B2: NEMO_(UBAN) C347S (258–350) (domain or fragment, UniProt Q9Y6K9 258-350, looked up)
chain: MQLEDLKQQLQQAEEALVAKQEVIDKLKEEAEQHKIVMETVPVLKAQADIYKADFQAERQAREKLAEKKELLQEQLEQLQREYSKLKASSQES
notes: NEMO (IKKγ), UBAN / CC2-LZ region, residues 258–350 with C347S; Used for SAXS, for MST/ITC and unlabelled in the NMR experiments with 15N-linUb2; also called NEMO_(258–350) C347S; source: cloned into pET vectors, recombinant, purified (details in the Supporting Information); not shown: His6, N-terminal, cleaved
In the case of B2, the Kd in the data set with linear Ub2 [3] fell in the range of 1000 to 2000 nM. Further, the “stoichiometry N” value in data set [4] amounted to 2.
